How the values were obtained:
[1] = target: Tubulin purified from lamb brains (sheep (purified from lamb brains)); assay: ITC; stathmin (syringe, 50-200 uM) injected into tubulin (cell, 5-20 uM); no MTA; 37°C; 20 mM NaPi, 4 mM MgCl2, 0.1 mM GTP, pH 6.5; one set of sites model; apparent constants
[2] = target: Tubulin purified from lamb brains (sheep (purified from lamb brains)); assay: ITC; stathmin (syringe) injected into tubulin (cell); vinflunine (10 uM) in cell and syringe; 37°C; 20 mM NaPi, 4 mM MgCl2, 0.1 mM GTP, pH 6.5; one set of sites model; apparent constants

B1: Human recombinant stathmin (natural protein)
chain: MASSDIQVKELEKRASGQAFELILSPRSKESVPEFPLSPPKKKDLSLEEIQKKLEAAEERRKSHEAEVLKQLAEKREHEKEVLQKAIEENNNFSKMAEEKLTHKMEANKENREAQMAAKLERLREKDKHIEEVRKNKESKDPADETEAD
**Q.** B1 was tested. Which Ka [1] did it give?
**A.** Its Ka is 2.7e+06 M⁻¹.

**Q.** What about the dH (kcal/mole of stathmin) [1] of the same binder?
**A.** The dH (kcal/mole of stathmin) was -7.5.

**Q.** And the Ka [2]?
**A.** Its Ka is 7.8e+06 M⁻¹.

**Q.** What about the dH (kcal/mole of stathmin) [2] of the same binder?
**A.** Its dH (kcal/mole of stathmin) is -30.

Reference: publication PMC4451147
